Experimental data taken from patent publication US20120308570A1, “METHODS FOR TREATING DISEASES” (priority 2009, published 2012).

Experiments:
[1] = biological target: T1, Y120A-SSB-2ΔSB (murine SSB-2 residues 12-224 with tyrosine 120 mutated to alanine) (mouse, UniProt O88838 12-224); experiment: ITC
T1 construct: also called SSB-2-Y120A
T1 chain: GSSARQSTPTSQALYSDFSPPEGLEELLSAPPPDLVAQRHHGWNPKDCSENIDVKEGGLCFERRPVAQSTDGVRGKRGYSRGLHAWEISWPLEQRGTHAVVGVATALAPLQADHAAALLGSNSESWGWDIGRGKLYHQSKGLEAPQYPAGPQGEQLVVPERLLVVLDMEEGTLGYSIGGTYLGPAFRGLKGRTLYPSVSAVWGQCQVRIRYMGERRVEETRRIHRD
Protocol: (§1) Wild-type and mutant iNOS peptides (Table 2), corresponding to Lys19-Thr31 of mouse iNOS, were synthesized by GL Biochem (Shanghai) Ltd. These peptides were N-terminal acetylated and C-terminal amidated. All ITC measurements were carried out at 25° C. using a Microcal omega VP-ITC (Microcal Inc., Northampton, Mass.). SSB-2ΔSB was dialysed against buffer (100 mM TrisHCl, 150 mM NaCl, pH 8.0), and wild-type and mutant iNOS N-terminal peptides were prepared in the same buffer from 5 mM stocks. Solutions of 5 to 10 μM SSB-2ΔSB in the cell were titrated by injection of a total of 290 μL of 50-200 μM of iNOS peptides. Data analysis was performed using the evaluation software, MicroCal Origin version 5.0. All curves were fitted using the nonlinear least-squares fitter and the “One Set of Sites” model.
(§2) Mutation of Glu21 had no effect on SSB-2:iNOS peptide binding. […] Binding of an SSB-2-SPRY domain in which tyrosine 120 had. been mutated to alanine (Y120A-SSB-2ΔSB) was assessed by ITC.

[2] = biological target: T2, SSB-2ΔSB (recombinant murine SSB-2 SPRY domain, residues 12-224) (mouse, UniProt O88838 12-224); experiment: ITC, 25 C, peptide injected into SSB-2ΔSB
T2 construct: 226 residues in total; expressed as GST fusion in E. coli, GST cleaved off with thrombin; 15N-labelled for NMR; coupled to NHS-Sepharose for pull-downs; also called SPSB2
T2 sequence: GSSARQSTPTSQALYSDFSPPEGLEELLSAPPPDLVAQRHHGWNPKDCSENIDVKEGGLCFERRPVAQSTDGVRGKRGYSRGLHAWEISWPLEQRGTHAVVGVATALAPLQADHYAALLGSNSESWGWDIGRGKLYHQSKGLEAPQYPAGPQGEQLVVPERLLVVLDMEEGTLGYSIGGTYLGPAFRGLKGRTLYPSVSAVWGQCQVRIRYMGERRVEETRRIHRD
Protocol: (§3) FIG. 3. Typical ITC raw data and titration curves for SSB-2 and iNOS peptide interactions. Titration curves were fitted using the “One Set of Sites” model in MicroCal Origin.
as §1

[3] = biological target: T1, Y120A-SSB-2ΔSB (murine SSB-2 residues …); experiment: ITC, 25 C, wild-type peptide with Y120A-SSB-2ΔSB
Protocol: as §3, §1

[4] = biological target: T2, SSB-2ΔSB (recombinant murine SSB-2 SPRY …); experiment: ITC
Protocol: as §1, §2

[5] = biological target: T3, full-length iNOS protein (endogenous, from LPS/IFNγ-treated mouse bone marrow-derived macrophages) (mouse, UniProt P29477 1-1144); experiment: anti-SSB-2 immunoprecipitation from BMDM, anti-iNOS Western blot (FIG. 5B)
T3 construct: Not purified: present in macrophage lysates; Detected by Western blot with anti-iNOS antibody; also called NOS2; inducible nitric oxide synthase
T3 sequence: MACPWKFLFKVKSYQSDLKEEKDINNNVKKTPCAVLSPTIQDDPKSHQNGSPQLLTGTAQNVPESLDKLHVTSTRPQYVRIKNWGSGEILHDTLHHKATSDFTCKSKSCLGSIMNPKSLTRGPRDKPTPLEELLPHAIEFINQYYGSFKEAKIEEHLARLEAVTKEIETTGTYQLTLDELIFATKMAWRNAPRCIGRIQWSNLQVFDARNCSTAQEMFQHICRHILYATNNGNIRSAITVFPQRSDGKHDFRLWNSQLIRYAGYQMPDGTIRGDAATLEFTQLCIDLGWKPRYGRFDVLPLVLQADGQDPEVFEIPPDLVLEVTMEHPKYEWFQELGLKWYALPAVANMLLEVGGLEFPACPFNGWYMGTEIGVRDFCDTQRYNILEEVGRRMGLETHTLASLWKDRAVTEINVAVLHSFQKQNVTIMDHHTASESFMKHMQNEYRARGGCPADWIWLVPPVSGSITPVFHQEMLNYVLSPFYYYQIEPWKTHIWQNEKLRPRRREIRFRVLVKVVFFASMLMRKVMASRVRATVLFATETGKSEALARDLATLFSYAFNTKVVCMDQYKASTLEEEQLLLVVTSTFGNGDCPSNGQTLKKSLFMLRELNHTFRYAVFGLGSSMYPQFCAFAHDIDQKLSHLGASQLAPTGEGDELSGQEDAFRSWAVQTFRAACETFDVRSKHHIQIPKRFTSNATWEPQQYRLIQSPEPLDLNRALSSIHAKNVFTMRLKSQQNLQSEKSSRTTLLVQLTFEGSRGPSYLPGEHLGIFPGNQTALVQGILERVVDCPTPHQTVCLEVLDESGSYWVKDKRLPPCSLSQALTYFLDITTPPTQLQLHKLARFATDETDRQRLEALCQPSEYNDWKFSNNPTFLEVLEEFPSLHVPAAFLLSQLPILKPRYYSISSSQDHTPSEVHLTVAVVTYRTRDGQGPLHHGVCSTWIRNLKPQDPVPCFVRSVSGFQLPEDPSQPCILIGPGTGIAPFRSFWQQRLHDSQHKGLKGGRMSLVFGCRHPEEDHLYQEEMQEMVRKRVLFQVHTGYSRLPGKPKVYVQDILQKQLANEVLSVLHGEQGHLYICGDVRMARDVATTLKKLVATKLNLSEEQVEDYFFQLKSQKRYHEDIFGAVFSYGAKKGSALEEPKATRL
Protocol: FIG. 5. SSB-2 interacts with endogenous full-length iNOS protein. (A) SSB-2 interacts with full-length iNOS and this requires tyrosine 120 in the SPRY domain peptide-binding surface. Bone marrow-derived macrophages (BMDM) from C57BL/6 mice were incubated with 20 ng/ml IFNγ and 1 μg/ml LPS for 16 h, lysed and incubated with NHS-sepharose beads coupled with recombinant SSB-2 or SSB-2-Y120A proteins, or with uncoupled NHS-sepharose beads (CON), for 3 h at 4° C. Associated proteins were then separated by SDS-PAGE and transferred to PVDF membrane. iNOS was detected by Western blot with specific anti-iNOS antibodies (upper panel). Equivalent amounts of SSB-2 and SSB-2-Y120A were confirmed by reprobe with anti-SSB-2 antibodies (lower panel). (B) Interaction between endogenous iNOS and SSB-2 proteins. Bone marrow-derived macrophages from SSB-2-deficient mice (Ssb-2^{-/-}) or wild-type littermate controls (Ssb-2^{+/+}) were incubated with (+) or without (−) 20 ng/ml IFNγ and 20 ng/ml LPS for 16 h, lysed and endogenous SSB-2 proteins immunoprecipitated using rabbit anti-SSB-2 antibody coupled to NHS-Sepharose. Immunoprecipitates were separated by SDS-PAGE and associated iNOS protein detected by Western blot with specific antibodies (upper panel). […]

[6] = biological target: T3, full-length iNOS protein (endogenous, …); experiment: anti-Flag co-immunoprecipitation from mixed 293T and BMDM lysates, anti-iNOS Western blot
From the text: FIG. 6. Interaction between iNOS and SSB-1, -2, and -4 and SSB-2 residues affecting 10 iNOS binding. (A) iNOS interacts preferentially with SSB-2 and SSB-4. 293T cells were transiently transfected with vector alone or cDNA encoding either Flag-tagged SSB-1, SSB-2, SSB-3 or SSB-4. Cells were lysed, and mixed with BMDM lysates from cells induced to express iNOS. Flag-tagged proteins were immunoprecipitated using anti-Flag antibodies (M2-beads) and separated by SDSPAGE. Co-immunoprecipitation of iNOS was detected by Western blot with anti-iNOS antibodies (upper panel). Membranes were stripped and reprobed with rat anti-Flag antibodies (middle panel). Comparative expression of Flag-tagged proteins in 293T lysates is shown by Western blot (lower panel). (B) SSB-2 residues affecting iNOS binding. Residues in the SSB-2 SPRY domain were mutated to Ala or Phe (for Y120) based on SSB-2 structure and sequence conservation. […] Coimmunoprecipitation of iNOS was detected by Western blot with anti-iNOS antibodies.
To investigate whether other SSB family members were able to interact with iNOS, 293T cells were transiently transfected with cDNA expressing SSB-1, SSB-2, SSB-3 or SSB-4 with an N-terminal Flag-epitopetag. […] SSB proteins were immunoprecipitated using anti-Flag antibodies coupled to Sepharose and association of iNOS analysed by Western blot. […]

[7] = biological target: T3, full-length iNOS protein (endogenous, …); experiment: anti-Flag co-immunoprecipitation, anti-iNOS Western blot
From the text: FIG. 6. Interaction between iNOS and SSB-1, -2, and -4 and SSB-2 residues affecting 10 iNOS binding. (A) iNOS interacts preferentially with SSB-2 and SSB-4. 293T cells were transiently transfected with vector alone or cDNA encoding either Flag-tagged SSB-1, SSB-2, SSB-3 or SSB-4. Cells were lysed, and mixed with BMDM lysates from cells induced to express iNOS. Flag-tagged proteins were immunoprecipitated using anti-Flag antibodies (M2-beads) and separated by SDSPAGE. Co-immunoprecipitation of iNOS was detected by Western blot with anti-iNOS antibodies (upper panel). Membranes were stripped and reprobed with rat anti-Flag antibodies (middle panel). Comparative expression of Flag-tagged proteins in 293T lysates is shown by Western blot (lower panel). (B) SSB-2 residues affecting iNOS binding. Residues in the SSB-2 SPRY domain were mutated to Ala or Phe (for Y120) based on SSB-2 structure and sequence conservation. 293T cells 20 were transiently transfected with cDNA encoding Flag-tagged wild-type or mutant SSB-2. Cells were lysed, and mixed with BMDM lysates from cells induced to express iNOS. Flag-tagged proteins were immunoprecipitated using anti-Flag antibodies and separated by SDS-PAGE. Coimmunoprecipitation of iNOS was detected by Western blot with anti-iNOS antibodies.

B1: iNOS N-terminal peptide I, wild-type, Ac-KEEKDINNNVKKT-NH2 (peptide)
peptide: Ac-KEEKDINNNVKKT-NH2
notes: Synthetic peptide (GL Biochem); also called wild-type iNOS peptide; iNOS peptide
fold reduced affinity against SSB-2ΔSB [1]: ~5000 fold | Kd [2]: 13.3 nM | Kd [3]: 76300 nM

Ac-KEEKDINNNAKKT-NH2 [iNOS N-terminal peptide XII, Ac-KEEKDINNNAKKT-NH2]
fold lower binding affinity than the wild-type peptide [4]: 2 to 4 fold | Kd [2]: 56.8 nM

Ac-KEEKDINNNVKAT-NH2 [iNOS N-terminal peptide XIII, Ac-KEEKDINNNVKAT-NH2]
fold lower binding affinity than the wild-type peptide [4]: 2 fold | Kd [2]: 29.8 nM

Ac-KEEADINNNAKAT-NH2 [iNOS N-terminal peptide XV, Ac-KEEADINNNAKAT-NH2]
fold decrease of binding affinity against the wild-type peptide [4]: ~24 fold | Kd [2]: 311 nM

B2: endogenous SSB-2 protein (mouse bone marrow-derived macrophages) (other)
chain: MGQTALARGSSSTPTSQALYSDFSPPEGLEELLSAPPPDLVAQRHHGWNPKDCSENIDVKEGGLCFERRPVAQSTDGVRGKRGYSRGLHAWEISWPLEQRGTHAVVGVATALAPLQADHYAALLGSNSESWGWDIGRGKLYHQSKGLEAPQYPAGPQGEQLVVPERLLVVLDMEEGTLGYSIGGTYLGPAFRGLKGRTLYPSVSAVWGQCQVRIRYMGERRVEEPQSLLHLSRLCVRHALGDTRLGQISTLPLPPAMKRYLLYK
notes: Immunoprecipitated with rabbit anti-SSB-2 antibody coupled to NHS-Sepharose; also called SPSB2
binding result [5]: binds

B3: Flag-tagged SSB-3 (murine, expressed in 293T cells) (other, mouse)
chain: DYKDDDDKMARRTRSSRAWHFVLSAARRDTDARAVALAGSSNWGYDSDGQHSDSDSDPEYSSLPPSIPSAVPVTGESFCDCEGQNEATFCNSLHTAHRGKDCRCGEEDEDFDWVWDDLNKSSATLLSCDNRKVSFHMEYSCGTAAIRGTKELGDGQHFWEIKMTSPVYGTDMMVGIGTSDVDLDKYHHTFCSLLGRDEDSWGLSYTGLLHHKGDKTSFSSRFGQGSIIGVHLDTWHGTLTFFKNRKCIGVAATRLQNRRFYPMVCSTAAKSSMKVIRSCASSTSLQYLCCYRLRQLRPNSGDTLEGLPLPPGLKQVLHNKLGWVLSMNCNHWKSPVPPPGTATPGAESLETRPCQRKRCRRS
notes: also called SPSB3
binding result [6]: no binding

B4: Flag-tagged SSB-2 mutant Y120 to phenylalanine (other)
chain: DYKDDDDKMGQTALARGSSSTPTSQALYSDFSPPEGLEELLSAPPPDLVAQRHHGWNPKDCSENIDVKEGGLCFERRPVAQSTDGVRGKRGYSRGLHAWEISWPLEQRGTHAVVGVATALAPLQADHFAALLGSNSESWGWDIGRGKLYHQSKGLEAPQYPAGPQGEQLVVPERLLVVLDMEEGTLGYSIGGTYLGPAFRGLKGRTLYPSVSAVWGQCQVRIRYMGERRVEEPQSLLHLSRLCVRHALGDTRLGQISTLPLPPAMKRYLLYK
binding result [7]: no binding
